Paper PMC6277429

Legend:
Experiment in all cases: EMSA
Conditions in all cases: 10 mM Tris pH 7.5, 100 mM KCl (Fig. 3 legend; not in Methods), 1 mM DTT, 2.5% glycerol, 20 mM MgCl2, 500 ng poly(dI-dC), 0.05% NP-40; 30 nM DNA; 10 min room …
[1] = target: T1, His-GlnR (Mycobacterium smegmatis mc2 155) (UniProt A0R4C4)
T1 sequence: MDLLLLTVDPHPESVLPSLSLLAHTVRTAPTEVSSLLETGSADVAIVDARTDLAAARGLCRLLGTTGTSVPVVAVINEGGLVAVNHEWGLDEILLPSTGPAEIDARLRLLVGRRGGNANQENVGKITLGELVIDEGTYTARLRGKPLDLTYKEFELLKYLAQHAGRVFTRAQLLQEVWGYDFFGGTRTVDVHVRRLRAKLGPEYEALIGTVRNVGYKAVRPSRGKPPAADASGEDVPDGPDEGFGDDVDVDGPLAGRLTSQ

[2] = target: T2, MBP-NnaR (Mycobacterium smegmatis mc2 155) (UniProt A0QPK7)
T2 sequence: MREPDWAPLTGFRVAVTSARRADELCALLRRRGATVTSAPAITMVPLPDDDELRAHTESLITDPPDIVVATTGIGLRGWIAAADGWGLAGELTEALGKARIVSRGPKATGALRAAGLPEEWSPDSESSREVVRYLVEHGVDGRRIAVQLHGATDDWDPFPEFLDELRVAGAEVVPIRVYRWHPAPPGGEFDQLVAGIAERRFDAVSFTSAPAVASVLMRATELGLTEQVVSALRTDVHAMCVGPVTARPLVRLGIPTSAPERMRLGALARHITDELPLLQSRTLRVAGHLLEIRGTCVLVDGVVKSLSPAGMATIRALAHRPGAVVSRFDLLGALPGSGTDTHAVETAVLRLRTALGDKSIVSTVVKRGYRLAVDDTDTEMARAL

[3] = target: T3, MBP-NnaR;His-GlnR (Mycobacterium smegmatis mc2 155;Mycobacterium smegmatis mc2 155) (UniProt A0QPK7+A0R4C4)
T3 sequence 1: T2 sequence
T3 sequence 2: T1 sequence

GACCCCTGGTGACCGCGTAACGGCTTTCTCACAGGTGCCCGCCGATCCAGGTGAGCGGAATTTCACGGCCGGGTCATCGCGCGCAGTGTCGGGGCAATAATCGCTTTCTAGCGTGCTCGCATG (double strand) [msmeg_0433 promoter]
binding [1]: binds more weakly
binding [2]: binds

CATAGGGCGAGGCTAAGAACCCGATATTGCCGCGATGTCGCGCTGTGTGAAGCCCCCATCACGGTGTGCTCACGTCTTCGGCAACGCACATGTGAGGTCCCCGACCGGTGAGCTCTCCGGACCACAGTCAGGCCACAACCGCC (double strand) [msmeg_0427 promoter]
binding [2]: binds

GCAGCTTGGACCACCTATTTCCACGCCATGAACGACCTCGCCCGAAAATTGATGAGCGCGTTCGCCCTCGGGTTGAGGTTGCCCGCCGACTACTTCGTCGACACCATCGA (double strand) [msmeg_4008 promoter]
binding [1]: no binding
binding [2]: no binding
binding [3]: binds

CGTGTGGCCCTTTCGTTCGATCCCGAGCACAGAGATTAACTGTACTGACCACGCAAGGCGAGACGTCGGCACTCGTGACGTCCTCACACGGTTTTCACAACGCACTCACAAGACATGTGAGCAGCACGTAGCGGACCCGGTACGCCTGGGCAATGGTGCGGCAACGGGGTTCTCCGACGCTGAACGCATG (double strand) [msmeg_5765 promoter]
binding [1]: binds more weakly
binding [2]: binds

ATCTGCATCATCTCGCGACTTTGGTCAGCTGTCGCCCTGGCGCGCCGAGGCACGGCAGGTTTCGCACGCCCAGGCATCTCACAGCCGACGCTGAGCTGATGTGCGCAGATGGCAACACCGATGCATAGGTCAAGTCGCCGAACCGCAATCTGGGCGCGACACGGTCTAGGGAACTGTCCATCGGGTCCATCGGAAGGTTGCACCCAATG (double strand) [msmeg_5360 promoter]
binding [1]: no binding
binding [2]: no binding
binding [3]: binds
